Laboratory results published in US20210122813A1 (Kyowa Kirin, published 2021).

T1: human BMP10 mature dimer (manufactured by R & D Systems, Inc., Cat #2926-BP) (human, UniProt O95393 317-424)
T1 construct: Bought product; also called human mature BMP10; mature BMP10
T1 sequence: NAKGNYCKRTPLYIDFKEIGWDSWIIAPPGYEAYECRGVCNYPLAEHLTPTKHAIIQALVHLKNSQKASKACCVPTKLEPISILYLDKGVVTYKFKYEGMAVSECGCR


Target: T1, human BMP10 mature dimer (manufactured …)
Test: SPR (Biacore T100), antibody captured by anti-human IgG, human BMP10 mature dimer as analyte
Procedure: The binding activity of the anti-BMP10 antibody was measured as follows. An anti-human IgG antibody was immobilized on a CMS sensor chip (manufactured by GE Healthcare Bio-Sciences, Inc., BR100530) using Human Antibody Capture Kit (manufactured by GE Healthcare Bio-Sciences Corporation, Cat #BR-1008-39) according to the attached protocol. To a flow cell in which the anti-human IgG antibody was immobilized, the antibody prepared at 5 μg/mL was added at a flow rate of 10 μL/min for 10 seconds.
Subsequently, human mature BMP10 prepared at 5 concentrations by 3-fold serial dilution from the 100 ng/mL was added thereto at a flow rate of 30 μL/min, and a binding reaction was monitored for 1 minute and a dissociation reaction was monitored for 10 minutes. The obtained sensorgram was analyzed using Bia Evaluation Software (manufactured by GE Healthcare Bio-Sciences Corporation), and the kinetic constant of each antibody was calculated. The calculated association rate constant (ka), dissociation rate constant (kd), and dissociation constant [kd/ka=KD] of each antibody are shown in Table 4.

Binder	Kd
VLres04HVmut04 (antibody, V domains shown, Humanized 18C1 antibody; also called VLres04HVmut04 antibody; hz18C1 antibody) VH: QVQLQESGPDLVQPSQTLDITCTVSGFSLTTYNVHWVRQPPGKGLEWMGTMWNGGGIDYNSAFKSRLAISRDTSKNEVFLKMDSLQTDDTAKYFCARLGYYVDYWGQGILVTVSS VL: QFALIQSDSMSTSAGSTVKLSCKRSTGNIGSSYVYWYQQHEGRSPTTMIYDGDKRPDGVPDRFSGSIDSSSNSASLTINDVQIEDEAVYFCQSFSSGIKFIFGGGTKLTVL	3.19 pM
VLres04VHres16 (antibody, V domains shown, Humanized 18C1 antibody; also called VLres04VHres16 antibody; hz18C1 antibody) VH: QVQLKETGPDLVQPTQTLDITCTVSGFSLTTYNVHWVRQPPGKGLEWMGTMWNGGGIDYNSAFKSRLAISRDTSKSEVFLKMDSLQTDDTAKYFCARLGYYVDYWGQGIMVTVSS VL: QFALIQSDSMSTSAGSTVKLSCKRSTGNIGSSYVYWYQQHEGRSPTTMIYDGDKRPDGVPDRFSGSIDSSSNSASLTINDVQIEDEAVYFCQSFSSGIKFIFGGGTKLTVL	3.21 pM
VLres10HVmut08 (antibody, V domains shown, Humanized 18C1 antibody; also called hz18C1 antibody; anti-BMP10 humanized antibody) VH: QVQLQESGPDLVKPSQTLDITCTVSGFSLTTYNVHWVRQPPGKGLEWMGTMWNGGGIDYNSAFKDRLTISRDTSKNQVFLKMDSLQTDDTAVYFCARLGYYVDYWGQGILVTVSS VL: QFVLIQSDSMSTSAGSTVKLSCKRSTGNIGSSYVYWYQQHEGRSPTTMIYDGDKRPDGVPDRFSGSIDSSSNSASLTINNVQIEDEAVYFCQSFSSGIKFIFGGGTKLTVL	3.06 pM
VLres14VHres16 (antibody, V domains shown, Humanized 18C1 antibody; also called VLres14VHres16 antibody; hz18C1 antibody) VH: QVQLKETGPDLVQPTQTLDITCTVSGFSLTTYNVHWVRQPPGKGLEWMGTMWNGGGIDYNSAFKSRLAISRDTSKSEVFLKMDSLQTDDTAKYFCARLGYYVDYWGQGIMVTVSS VL: QFVLIQSDSMSTSAGSTVKLSCKRSTGNIGSSYVYWYQQHEGRSPTTMIYDGDKRPDGVPDRFSGSIDSSSNSAFLTINDVQIEDEAVYFCQSFSSGIKFIFGGGTKLTVL	3.3 pM
VLres10HVmut04 (antibody, V domains shown, Humanized 18C1 antibody; also called hz18C1 antibody; anti-BMP10 humanized antibody) VH: QVQLQESGPDLVQPSQTLDITCTVSGFSLTTYNVHWVRQPPGKGLEWMGTMWNGGGIDYNSAFKSRLAISRDTSKNEVFLKMDSLQTDDTAKYFCARLGYYVDYWGQGILVTVSS VL: QFVLIQSDSMSTSAGSTVKLSCKRSTGNIGSSYVYWYQQHEGRSPTTMIYDGDKRPDGVPDRFSGSIDSSSNSASLTINNVQIEDEAVYFCQSFSSGIKFIFGGGTKLTVL	3.2 pM
VLres06HVmut02 (antibody, V domains shown, Humanized 18C1 antibody; also called hz18C1 antibody; anti-BMP10 humanized antibody) VH: QVQLQESGPDLVKPSQTLDITCTVSGFSLTTYNVHWVRQPPGKGLEWMGTMWNGGGIDYNSAFKSRLTISRDTSKNQVFLKMDSLQTDDTAKYFCARLGYYVDYWGQGILVTVSS VL: QFVLIQSDSMSTSAGSTVKLSCKRSTGNIGSSYVYWYQQHEGRSPTTMIYDGDKRPDGVPDRFSGSIDSSSNSASLTINDVQVEDEAIYFCQSFSSGIKFIFGGGTKLTVL	3.37 pM
VLres02HVmut08 (antibody, V domains shown, Humanized 18C1 antibody; also called hz18C1 antibody; anti-BMP10 humanized antibody) VH: QVQLQESGPDLVKPSQTLDITCTVSGFSLTTYNVHWVRQPPGKGLEWMGTMWNGGGIDYNSAFKDRLTISRDTSKNQVFLKMDSLQTDDTAVYFCARLGYYVDYWGQGILVTVSS VL: QFVLIQSDSMSTSAGSTVKLSCKRSTGNIGSSYVYWYQQHEGRSPTTMIYDGDKRPDGVPDRFSGSIDSSSNSASLTINDVQIEDEAVYFCQSFSSGIKFIFGGGTKLTVL	3.05 pM
VLres10VHres16 (antibody, V domains shown, Humanized 18C1 antibody; also called VLres10VHres16 antibody; hz18C1 antibody) VH: QVQLKETGPDLVQPTQTLDITCTVSGFSLTTYNVHWVRQPPGKGLEWMGTMWNGGGIDYNSAFKSRLAISRDTSKSEVFLKMDSLQTDDTAKYFCARLGYYVDYWGQGIMVTVSS VL: QFVLIQSDSMSTSAGSTVKLSCKRSTGNIGSSYVYWYQQHEGRSPTTMIYDGDKRPDGVPDRFSGSIDSSSNSASLTINNVQIEDEAVYFCQSFSSGIKFIFGGGTKLTVL	3.57 pM
VLres08VHres16 (antibody, V domains shown, Humanized 18C1 antibody; also called VLres08VHres16 antibody; hz18C1 antibody) VH: QVQLKETGPDLVQPTQTLDITCTVSGFSLTTYNVHWVRQPPGKGLEWMGTMWNGGGIDYNSAFKSRLAISRDTSKSEVFLKMDSLQTDDTAKYFCARLGYYVDYWGQGIMVTVSS VL: QFALIQSDSMSTSAGSTVKLSCKRSTGNIGSSYVYWYQQHEGRSPTTMIYDGDKRPDGVPDRFSGSIDSSSNSASLTINDVQVEDEAIYFCQSFSSGIKFIFGGGTKLTVL	3.25 pM
VLres10HVmut02 (antibody, V domains shown, Humanized 18C1 antibody; also called VLres10HVmut02 antibody; hz18C1 antibody) VH: QVQLQESGPDLVKPSQTLDITCTVSGFSLTTYNVHWVRQPPGKGLEWMGTMWNGGGIDYNSAFKSRLTISRDTSKNQVFLKMDSLQTDDTAKYFCARLGYYVDYWGQGILVTVSS VL: QFVLIQSDSMSTSAGSTVKLSCKRSTGNIGSSYVYWYQQHEGRSPTTMIYDGDKRPDGVPDRFSGSIDSSSNSASLTINNVQIEDEAVYFCQSFSSGIKFIFGGGTKLTVL	3.41 pM
VLres08HVmut08 (antibody, V domains shown, Humanized 18C1 antibody; also called hz18C1 antibody; anti-BMP10 humanized antibody) VH: QVQLQESGPDLVKPSQTLDITCTVSGFSLTTYNVHWVRQPPGKGLEWMGTMWNGGGIDYNSAFKDRLTISRDTSKNQVFLKMDSLQTDDTAVYFCARLGYYVDYWGQGILVTVSS VL: QFALIQSDSMSTSAGSTVKLSCKRSTGNIGSSYVYWYQQHEGRSPTTMIYDGDKRPDGVPDRFSGSIDSSSNSASLTINDVQVEDEAIYFCQSFSSGIKFIFGGGTKLTVL	2.99 pM
VLres07VHres16 (antibody, V domains shown, Humanized 18C1 antibody; also called VLres07VHres16 antibody; hz18C1 antibody) VH: QVQLKETGPDLVQPTQTLDITCTVSGFSLTTYNVHWVRQPPGKGLEWMGTMWNGGGIDYNSAFKSRLAISRDTSKSEVFLKMDSLQTDDTAKYFCARLGYYVDYWGQGIMVTVSS VL: QFALIQSDSMSTSLGSTVTLSCKRSTGNIGSSYVYWYQQHEGRSPTTMIYDGDKRPDGVPDRFSGSIDSSSNSASLTINDVQVEDEAIYFCQSFSSGIKFIFGGGTKLTVL	3.11 pM

The next lines start with the values.

Kd	Binder
2.69 pM	VLres07HVmut10 (antibody, V domains shown, Humanized 18C1 antibody; also called VLres07HVmut10 antibody; hz18C1 antibody) VH: QVQLQESGPDLVQPSQTLDITCTVSGFSLTTYNVHWVRQPPGKGLEWMGTMWNGGGIDYNSAFKDRLAISRDTSKNEVFLKMDSLQTDDTAVYFCARLGYYVDYWGQGILVTVSS VL: QFALIQSDSMSTSLGSTVTLSCKRSTGNIGSSYVYWYQQHEGRSPTTMIYDGDKRPDGVPDRFSGSIDSSSNSASLTINDVQVEDEAIYFCQSFSSGIKFIFGGGTKLTVL
2.97 pM	VLres02HVmut07 (antibody, V domains shown, Humanized 18C1 antibody; also called hz18C1 antibody; anti-BMP10 humanized antibody) VH: QVQLQESGPDLVQPSQTLDITCTVSGFSLTTYNVHWVRQPPGKGLEWMGTMWNGGGIDYNSAFKDRLAISRDTSKNQVSLKMDSLQTDDTAKYFCARLGYYVDYWGQGILVTVSS VL: QFVLIQSDSMSTSAGSTVKLSCKRSTGNIGSSYVYWYQQHEGRSPTTMIYDGDKRPDGVPDRFSGSIDSSSNSASLTINDVQIEDEAVYFCQSFSSGIKFIFGGGTKLTVL
2.94 pM	VLres06HVmut10 (antibody, V domains shown, Humanized 18C1 antibody; also called hz18C1 antibody; anti-BMP10 humanized antibody) VH: QVQLQESGPDLVQPSQTLDITCTVSGFSLTTYNVHWVRQPPGKGLEWMGTMWNGGGIDYNSAFKDRLAISRDTSKNEVFLKMDSLQTDDTAVYFCARLGYYVDYWGQGILVTVSS VL: QFVLIQSDSMSTSAGSTVKLSCKRSTGNIGSSYVYWYQQHEGRSPTTMIYDGDKRPDGVPDRFSGSIDSSSNSASLTINDVQVEDEAIYFCQSFSSGIKFIFGGGTKLTVL
2.84 pM	VLres14HVmut10 (antibody, V domains shown, Humanized 18C1 antibody; also called VLres14HVmut10 antibody; hz18C1 antibody) VH: QVQLQESGPDLVQPSQTLDITCTVSGFSLTTYNVHWVRQPPGKGLEWMGTMWNGGGIDYNSAFKDRLAISRDTSKNEVFLKMDSLQTDDTAVYFCARLGYYVDYWGQGILVTVSS VL: QFVLIQSDSMSTSAGSTVKLSCKRSTGNIGSSYVYWYQQHEGRSPTTMIYDGDKRPDGVPDRFSGSIDSSSNSAFLTINDVQIEDEAVYFCQSFSSGIKFIFGGGTKLTVL
2.71 pM	VLres14HVmut08 (antibody, V domains shown, Humanized 18C1 antibody; also called hz18C1 antibody; anti-BMP10 humanized antibody) VH: QVQLQESGPDLVKPSQTLDITCTVSGFSLTTYNVHWVRQPPGKGLEWMGTMWNGGGIDYNSAFKDRLTISRDTSKNQVFLKMDSLQTDDTAVYFCARLGYYVDYWGQGILVTVSS VL: QFVLIQSDSMSTSAGSTVKLSCKRSTGNIGSSYVYWYQQHEGRSPTTMIYDGDKRPDGVPDRFSGSIDSSSNSAFLTINDVQIEDEAVYFCQSFSSGIKFIFGGGTKLTVL
2.99 pM	VLres14HVmut07 (antibody, V domains shown, Humanized 18C1 antibody; also called hz18C1 antibody; anti-BMP10 humanized antibody) VH: QVQLQESGPDLVQPSQTLDITCTVSGFSLTTYNVHWVRQPPGKGLEWMGTMWNGGGIDYNSAFKDRLAISRDTSKNQVSLKMDSLQTDDTAKYFCARLGYYVDYWGQGILVTVSS VL: QFVLIQSDSMSTSAGSTVKLSCKRSTGNIGSSYVYWYQQHEGRSPTTMIYDGDKRPDGVPDRFSGSIDSSSNSAFLTINDVQIEDEAVYFCQSFSSGIKFIFGGGTKLTVL
2.88 pM	VLres08HVmut04 (antibody, V domains shown, Humanized 18C1 antibody; also called hz18C1 antibody; anti-BMP10 humanized antibody) VH: QVQLQESGPDLVQPSQTLDITCTVSGFSLTTYNVHWVRQPPGKGLEWMGTMWNGGGIDYNSAFKSRLAISRDTSKNEVFLKMDSLQTDDTAKYFCARLGYYVDYWGQGILVTVSS VL: QFALIQSDSMSTSAGSTVKLSCKRSTGNIGSSYVYWYQQHEGRSPTTMIYDGDKRPDGVPDRFSGSIDSSSNSASLTINDVQVEDEAIYFCQSFSSGIKFIFGGGTKLTVL
2.19 pM	VLres10HVmut10 (antibody, V domains shown, Humanized 18C1 antibody; also called VLres10HVmut10 antibody; hz18C1 antibody) VH: QVQLQESGPDLVQPSQTLDITCTVSGFSLTTYNVHWVRQPPGKGLEWMGTMWNGGGIDYNSAFKDRLAISRDTSKNEVFLKMDSLQTDDTAVYFCARLGYYVDYWGQGILVTVSS VL: QFVLIQSDSMSTSAGSTVKLSCKRSTGNIGSSYVYWYQQHEGRSPTTMIYDGDKRPDGVPDRFSGSIDSSSNSASLTINNVQIEDEAVYFCQSFSSGIKFIFGGGTKLTVL
